According to paper PMC3189933, “Acylpeptide Hydrolase Inhibition as Targeted Strategy to Induce Proteasomal Down-Regulation” (PLoS ONE, 2011):

B1: SsCEI 4 (peptide)
peptide: H-TILAEIKNINAD-NH2
notes: As SsCEI 2 with Ala at P1; also called S4; source: synthetic peptide (solid-phase Fmoc/tBu synthesis, purified by reverse-phase HPLC)

Legend:
[1] = biological target: T1, Porcine liver acylpeptide hydrolase (porcine, UniProt P19205 1-732); test: cell-based or functional assay
T1 sequence (looked up): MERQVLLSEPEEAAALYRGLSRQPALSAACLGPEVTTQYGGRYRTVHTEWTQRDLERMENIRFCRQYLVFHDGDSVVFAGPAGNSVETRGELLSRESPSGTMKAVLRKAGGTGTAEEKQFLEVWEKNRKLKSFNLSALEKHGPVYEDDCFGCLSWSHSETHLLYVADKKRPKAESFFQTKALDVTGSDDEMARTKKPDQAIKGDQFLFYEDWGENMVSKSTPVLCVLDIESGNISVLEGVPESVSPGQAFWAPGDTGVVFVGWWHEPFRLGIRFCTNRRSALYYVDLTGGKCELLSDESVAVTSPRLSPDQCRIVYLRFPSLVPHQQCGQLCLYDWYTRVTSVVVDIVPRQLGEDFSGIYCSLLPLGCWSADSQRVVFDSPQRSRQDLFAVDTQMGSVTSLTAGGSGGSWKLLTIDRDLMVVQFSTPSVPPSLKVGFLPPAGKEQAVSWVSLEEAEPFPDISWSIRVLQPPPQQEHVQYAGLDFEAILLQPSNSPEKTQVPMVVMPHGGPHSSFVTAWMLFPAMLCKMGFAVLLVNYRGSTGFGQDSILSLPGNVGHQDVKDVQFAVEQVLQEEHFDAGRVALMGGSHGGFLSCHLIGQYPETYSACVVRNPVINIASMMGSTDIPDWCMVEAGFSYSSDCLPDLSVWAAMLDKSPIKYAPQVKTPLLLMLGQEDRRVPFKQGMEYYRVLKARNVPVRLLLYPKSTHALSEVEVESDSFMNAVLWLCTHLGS

Bovine α-chymotrypsin = Bovine α-chymotrypsin (bovine); test: cell-based or functional assay
[2] = biological target: T1, Porcine liver acylpeptide hydrolase; test: enzyme inhibition kinetics (Lineweaver-Burk); porcine APEH (0.5 nM in the legend; 3-5 nM in the methods) pre-incubated with 100 or 150 µM SsCEI 4 for 30 min at 37°C, 50 mM Tris-HCl pH 7.5, substrate acetyl-Ala-pNA; competitive inhibition; conditions: both partners purified

Binder | IC50 of inhibition of porcine APEH activity (substrate Ac-Ala-pNA) [1] [µM] | IC50 of inhibition of bovine α-chymotrypsin activity (Bovine α-chymotrypsin) [µM] | Ki [2] [µM]
H-TILLEIKNINAD-NH2 [SsCEI 2] | 142 | 21.9 | –
B1 | 84 | – | 4
